Results on two molecules are retold here after US20040136959A1 (published 2004).

Assay [1] has as its target IL-13 receptor (IL-13R) as naturally present on the human cell lines (human). Briefly: cell-based or functional assay.
Assay [2] addresses human IL-13 receptor α2 chain (IL-13Rα2) (human) (UniProt Q14627). Briefly: cell-based or functional assay.
For assay [3], the target named is T1, human IL-13 receptor α2 chain (IL-13Rα2) (human, UniProt Q14627 27-380).
T1 construct: also called IL-13Rα2 chain; IL-13Rα chain
T1 sequence: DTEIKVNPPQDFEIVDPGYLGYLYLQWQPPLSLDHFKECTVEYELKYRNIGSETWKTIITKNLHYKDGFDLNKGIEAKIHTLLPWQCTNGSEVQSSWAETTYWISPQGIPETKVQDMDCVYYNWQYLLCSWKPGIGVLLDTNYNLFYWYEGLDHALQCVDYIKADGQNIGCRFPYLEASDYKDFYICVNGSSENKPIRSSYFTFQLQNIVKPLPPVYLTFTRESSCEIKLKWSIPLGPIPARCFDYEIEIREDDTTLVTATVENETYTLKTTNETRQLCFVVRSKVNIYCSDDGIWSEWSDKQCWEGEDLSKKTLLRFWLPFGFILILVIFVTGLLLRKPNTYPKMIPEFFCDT
Briefly: 125I-IL-4 radioreceptor binding on SCCHN cells, vector control against IL-13Rα2 transfectants.

In assay [1], “IL-13-PE38 (from UniProt P35225 25-146; P11439 278-389; P11439 406-638)” had an IC50, inhibition of protein synthesis, A253 cells of 0.155 µg/mL; an IC50, inhibition of protein synthesis, Hep-2 cells of 0.2 µg/mL; an IC50, inhibition of protein synthesis, KB cells of 0.1 µg/mL; an IC50, inhibition of protein synthesis, KCCL871 cells of 0.185 µg/mL. In assay [1], this molecule showed an IC50, inhibition of protein synthesis, KCCT871 cells of 0.275 µg/mL; an IC50, inhibition of protein synthesis, KCCT891 cells above 1 µg/mL; an IC50, inhibition of protein synthesis, KCCTCM901 cells of 0.11 µg/mL; an IC50, inhibition of protein synthesis, RPMI2650 cells above 1 µg/mL. In addition, in assay [1], the IC50, inhibition of protein synthesis, YCU891 cells stood at 0.5 µg/mL; the IC50, inhibition of protein synthesis, YCUM862 cells was above 1 µg/mL; the IC50, inhibition of protein synthesis, YCUT891 cells is above 1 µg/mL; the IC50, inhibition of protein synthesis, YCUT892 cells was above 1 µg/mL. In assay [1], this molecule had an IC50, inhibition of protein synthesis, other 14 SCCHN cell lines of 0.1 to 1 µg/mL. In assay [2], this molecule registered an IC50, inhibition of protein synthesis, HN12 cells (IL-13Rα2-positive) of 0.0075 µg/mL; an IC50, inhibition of protein synthesis, IL-13Rα2-positive SCCHN cell lines below 0.01 µg/mL; an IC50, inhibition of protein synthesis, KCCTC873 cells (IL-13Rα2-positive) of 0.008 µg/mL; an IC50, inhibition of protein synthesis, YCUM911 cells (IL-13Rα2-positive) of 0.004 µg/mL.

B1: Recombinant human IL-4 (ligand, UniProt P05112 25-153, looked up)
chain: HKCDITLQEIIKTLNSLTEQKTLCTELTVTDIFAASKNTTEKETFCRAATVLRQFYSHHEKDTRCLGATAQQFHRHKQLIRFLKRLDRNLWGLAGLNSCPVKEANQSTLENFLERLKTIMREKYSKCSS
notes: also called unlabeled IL-4
For the molecule B1, in assay [3], the binding result is “no binding”.
